3 molecules from patent US10017787B2, “Production of alkenes from 3-hydroxycarboxylic acids via 3-hydroxycarboxyl-nucleotidylic acids” (Global Bioenergies, priority 2013, dated 2018) can be followed below.

The Km is the concentration of substrate that gives half-maximal velocity. In general, kcat refers to the maximal rate divided by the concentration of active sites.

The test system of data set [1] is (R,S)-3-hydroxybutyrate. The data set can be described thus: Adenylation of 3-hydroxybutyrate with ATP or ADP as co-substrates, spectrophotometric assay. As to conditions: 5 mM (R,S)-3-hydroxybutyrate, 0-3.2 mM ATP or ADP, 0.1 mg/ml enzyme (FIGS. 15 and 16). The format is biochemical. On the procedure: Spectrophotometric assay was performed according to the procedure described in Example 2. The specificity of acyl-CoA synthase from M. algicola and AMP-dependent synthetase/ligase from Burkholderia sp. with respect to co-substrates was analyzed. Standard reaction contained:
0.1 mg/ml of purified enzyme
2-amino-6-mercapto-7-methylpurine ribonucleoside (MESG), purine nucleoside phosphorylase (PNP) and inorganic pyrophosphatase were added to the reaction mix according to the procedure described in the EnzCheck® Pyrophosphatase Assay Kit. A reaction mixture without inorganic pyrophosphatase was used for assays with ADP as co-substrate. Control assays were performed in which either no enzyme was added, or no 3-hydroxybutyrate was added. Each assay was started with the addition of co-substrate (ATP or ADP). Each sample was continuously monitored for the increase of 2-amino-6-mercapto-7-methylpurine at 360 nm on a SpectraMax Plus 384 UV/Vis Microplate Reader (Molecular Devices).

Data set [2] has as its system (R,S)-3-hydroxybutyrate. In words: Propylene production from 3-hydroxybutyrate, M. aquaeolei enzyme and OleC proteins, GC-FID. As to conditions: 50 mM (R,S)-3-hydroxybutyrate, 10 mM ATP, 2 mg/ml each enzyme, 18 hours at 37° C. The data set is classed as biochemical. On the procedure:
The studied enzymes were produced and purified according to the procedure described in Example 1. The studied reaction was carried out under the following conditions
2 mg/ml purified AMP-dependent synthetase/ligase from M. aquaeolei
2 mg/ml purified OleC protein from Shewanella amazonensis or from Chloroflexus aurantiacus
Reaction volume was 0.3 ml.
For the no enzymes control, buffer was used in place of enzymes.
Controls reactions without ATP were realized in parallel.
The reaction mixtures were incubated in 2 ml sealed vials (Interchim) for 18 hours at 37° C. with shaking. Propylene production was analyzed by Gas Chromatography (GC) using Bruker 450-GC gas chromatograph equipped with Flame Ionization Detector (FID). Nitrogen was used as carrier gas with a flow rate of 6 ml/min. Volatile compounds were chromatographically separated on GS-Alumina column (30 m×0.53 mm ID) (Agilent) using an isothermal mode at 130° C. The enzymatic reaction product were identified by comparison with standard of propylene (Sigma-Aldrich), the retention time of propylene in these conditions was 1.57 min.

A further data set has as its system 3-hydroxyisovalerate. The data set can be described thus: Isobutene production from 3-hydroxyisovalerate, M. aquaeolei enzyme and OleC proteins, GC-FID. As to conditions: 50 mM 3-hydroxyisovalerate, 10 mM ATP, 0.6 mg each enzyme in 0.3 ml, 18 hours at 37° C. The data set is classed as biochemical. On the procedure:
The studied reaction was carried out under the following conditions
Reaction volume was 0.3 ml
0.6 mg of AMP-dependent synthetase/ligase from M. aquaeolei and 0.6 mg of OleC protein were added to 0.3 ml of reaction mixture. A reaction mixture containing only 0.6 mg of AMP-dependent synthetase/ligase from M. aquaeolei was used as reference. The assays were incubated in 2 ml sealed vials (Interchim) for 18 hours at 37° C. with shaking. Isobutene production was analyzed by Gas Chromatography (GC) using Bruker 450-GC gas chromatograph equipped with Flame Ionization Detector (FID). Nitrogen was used as carrier gas with a flow rate of 6 ml/min. Volatile compounds were chromatographically separated on GS-Alumina column (30 m×0.53 mm ID) (Agilent) using an isothermal mode at 130° C. The enzymatic reaction product were identified by comparison with standard of isobutene (Sigma-Aldrich), the retention time of isobutene in these conditions was 2.40 min.

Substrate in data set [3]: CC(C)(O)CC(=O)O
The data set can be described thus: purified protein, by the assay type. As to conditions: other: 0-10 mM 3-hydroxycarboxylate, 2 mM ATP, 0.1 mg/ml enzyme, pH 7.5.

Substrate in data set [4]: CC(O)CC(=O)O
The data set can be described thus: purified protein, by the assay type. As to conditions: other: 0-10 mM 3-hydroxycarboxylate, 2 mM ATP, 0.1 mg/ml enzyme, pH 7.5.

Substrate in data set [5]: C=CC(O)CC(=O)O
In words: Kinetic parameters of adenylation of 3-hydroxycarboxylates, continuous spectrophotometric diphosphate release assay. As to conditions: other: 0-10 mM 3-hydroxycarboxylate, 2 mM ATP, 0.1 mg/ml enzyme, pH 7.5. The format is biochemical, Marinobacter aquaeolei. On the procedure: (§1) The genes coding for the adenylate-forming enzymes were synthesized and the corresponding enzymes were further produced according to the procedure described in Example 1. 3-hydroxypropionic acid (TCI) stock solution was prepared in water with the pH adjusted to 7.5 with 1 M NaOH. The release of diphosphate which is associated with 3-hydroxypropionyl-adenylate formation from 3-hydroxypropionate was quantified using the EnzCheck® Pyrophosphatase Assay Kit (E6645, Life Technologies).
(§2) In this assay, diphosphate was hydrolyzed to inorganic phosphate by inorganic pyrophosphatase and phosphate production coupled to phosphorolysis of the 2-amino-6-mercapto-7-methylpurine ribonucleoside (MESG), catalyzed by the enzyme purine nucleoside phosphorylase (PNP). The chromophoric product, 2-amino-6-mercapto-7-methylpurine, was monitored by absorbance at 360 nm (FIG. 9).
(§3) Kinetic parameters were determined by using the spectrophotometric assay described in Example 2. Reaction mixture for the assay of adenylation activity contained:
(§4) 0-10 mM 3-hydroxycarboxylate
(§5) 0.1 mg/ml of purified AMP-dependent synthetase/ligase from M. aquaeolei
(§6) 2-amino-6-mercapto-7-methylpurine ribonucleoside (MESG), purine nucleoside phosphorylase (PNP) and inorganic pyrophosphatase were added to the reaction mix according to the procedure described in the EnzCheck® Pyrophosphatase Assay Kit.

Substrate in data set [6]: CC[C@@H](O)CC(=O)O
The data set is described as above. The format is biochemical, Marinobacter aquaeolei. The settings on record: other: 0-10 mM 3-hydroxycarboxylate, 2 mM ATP, 0.1 mg/ml enzyme, pH 7.5. On the procedure:
as §1, §2, §3, §4, §5, §6

Substrate in data set [7]: O=C(O)CCO
The data set is described as above. The data set is classed as biochemical, Marinobacter aquaeolei. The settings on record: other: 0-10 mM 3-hydroxycarboxylate, 2 mM ATP, 0.1 mg/ml enzyme, pH 7.5. The protocol: as §1, §2, §3, §4, §5, §6

B1: AMP-dependent synthetase/ligase from Burkholderia sp.: AMP-dependent synthetase and ligase of Burkholderia sp., SEQ ID NO: 4, Uniprot R4WRJ4 (protein)
chain: MTHSEEIMTTPGIYDEGLPKTAANFAVMTPLTFIERAASVYPNRPAVVHGDVRRTWSETYARTRRLASALAARGIGVGDTVAVMLPNTPEMVEAHFGVPMTGAVLNALNTRLDAATLAFMLTHGEAKAVLVDREFSDVMRRALESVPQKLLVIDVDDSQYAGAGERIGEIEYEALLASGDPAYEWTPPSDEWNAICLNYTSGTTGNPKGVVYHHRGAYTNAVSNILEWDMPAHAVYLWTLPMFHCNGWCFPWTIAARAGVNVCLRRIDAKTVFDLIRNEGVTHYCGAPIVQNMLVNAPDELKAGIAQKVNAMVAGAAPPAAMIEGMERMGFQLTHVYGLTEVYGPATVCAHQAEWSELDIGERARLNARQGVRYHLQDAVTVRDPDTMQLVPPDGETIGEIMFRGNIAMKGYLKNAAATEEAFRGGWFHTGDLAVAYPDGYVRIKDRSKDIIISGGENISSIEVEDVLYRHPAVLAVAVVAKPDARWGETPCAFVELKTGVHVSGEELIAHCKQHLAGFKVPRAIEFCELPKTSTGKIQKFELRKRAGSVTAIDV
modifications: Burkholderia sp. RPE64
Turning to B1, the “formation of 3-hydroxybutyryl-adenylate with ATP or ADP as co-substrate” value in the data set on (R,S)-3-hydroxybutyrate [1] is “able to catalyze the formation of 3-hydroxybutyryl-adenylate by using ATP or ADP as co-substrate”.

B2: AMP-dependent synthetase/ligase from Marinobacter aquaeolei (Marinobacter nauticus VT8) (protein)
chain: MTSIFDQGLEPRDANYAVQSPIDFIERTASVYPDYPAIIHGAIRRTWAETYDRCLRLASALKGRGIGRGDTVAVMLPNIPAMVECHFGIPMIGAVLNTLNVRLDAEAIAFMLEHGEAKVVIADREFGQVIKDAVRHLEHKPLVIDVDDPEYGEGVQVSDLDYEAFLQEGDPQFQWSFPDNEWDAISLNYTSGTTGNPKGVVYHHRGAYINALGNQTVWSMDMHPVYLWTLPMFHCNGWCFPWTITAMAGTHVCLRRVDPEKILQLIHDHQVTHMCGAPIVLNALLNASPEAKAGIDHEVKSMTAGAAPPAQVIGSIEEMGIKVTHVYGLTEVYGPVTVCAWKSEWDELPLHDRAKIKARQGVRYHTLGGTMVADPNTMQPVPKDGKTIGEIFLRGNTVMKGYLKNPTATEEAFRGGWFHTGDLAVWHEDGYMEIKDRLKDIIISGGENISTIEVEDTLYRHPAVLEAAVVARPDEKWGETPCAFITLKPEAGDVSEDDIINFCREHLARFKVPKTVVFTELPKTSTGKIQKFVLRDQAKDLN
B2 yielded a Propylene peak area with (R,S)-3-hydroxybutyrate [2] of 0 arbitrary units. For the same molecule, the Isobutene peak area with 3-hydroxyisovalerate stood at 414 arbitrary units. Besides, the Km in data set [3] is reported as 10 mM; in data set [4] it was 2 mM; in data set [5], 3 mM; in data set [6], 4 mM; in data set [7], 5 mM. The kcat in data set [3] was found to be 0.007 s⁻¹; in data set [4], 0.03 s⁻¹; in data set [5], 0.023 s⁻¹; in data set [6] it was 0.012 s⁻¹; in data set [7], 0.04 s⁻¹.

B3: acyl-CoA synthase from M. algicola: acyl-CoA synthetase from Marinobacter algicola, SEQ ID NO: 2, Uniprot A6EZ54 (protein)
chain: MNSIFDKGLEPTDANNATLTPLDFLARTASVYPEYPAVIHGATRRNWQQTYERCRRLASALADRGVGKGDTVAAMLPNIPPMLECHFGIPMLGAVLNALNTRLDAKAIAFMLEHGEAKVLIADREFGDVINEAVGMLDNPPQVIDVNDPEFSGAGTQVSDLDYDAFVASGDPAFDWQMPADEWDAISLCYTSGTTGNPKGVVYHHRGAYENAMGNQAVWSMGMHPVYLWTLPMFHCNGWCFPWTITAFAGTHVCLRKVEPEKILQLISEHKVSHMCGAPIVLNTLLGASEAAKSSFSHTVQAMTAGAAPPAKVIEAIENMGFRVTHVYGLTEVYGPVTVCAWKSEWDDLPVEDRARIKARQGVRYHTLAGMMVGDPETMEAVPKDGNTIGEIFLRGNTVMKGYLKNPKATEEAFRGGWFHTGDLAVWHADGYAEIKDRLKDIIISGGENISTIEVEDVLYRHPDILEAAVVARPDEKWGETPCAFVTLKPEAGEVSEDDIIAFCRERMAKFKVPKTIVFSELPKTSTGKIQKFVLRDDAKKL
modifications: Marinobacter algicola DG893
In the case of B3, in the data set on (R,S)-3-hydroxybutyrate [1], the “formation of 3-hydroxybutyryl-adenylate with ATP or ADP as co-substrate” value is “able to catalyze the formation of 3-hydroxybutyryl-adenylate by using ATP or ADP as co-substrate”.
